From the supplement of paper PMC9112550, “Optimization of the antimicrobial peptide Bac7 by deep mutational scanning” (BMC Biology, 2022)

Test system: Escherichia coli TOP10
Test: shrunken log2 fold change of peptide-encoding DNA abundance (4.5 h post-induction vs induction); higher = less antimicrobial activity (less host growth inhibition)
Details: time post-induction: 4.5 h; library: site-saturation at positions 5, 18, 19, 20
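Note: peptides expressed intracellularly from a pBAD plasmid library in pooled LB shake-flask culture, induced with 0.3% L-arabinose, DNA abundance read by NGS, three biological replicates, DESeq2 with apeglm shrinkage.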

Sequence	shrunken log2 fold change
RRIRLRPPRLPRPRPRPQICPRP	-0.0895
RRIRCRPPRLPRPRPRPYAIPRP	-0.803
RRIRHRPPRLPRPRPRPGKKPRP	-0.0335
RRIRKRPPRLPRPRPRPITVPRP	0.0944
RRIRMRPPRLPRPRPRPHIFPRP	-0.268
RRIRKRPPRLPRPRPRPCIHPRP	-0.124
RRIRMRPPRLPRPRPRPMCWPRP	2.09
RRIRPRPPRLPRPRPRPFYTPRP	-0.429
RRIRARPPRLPRPRPRPFPVPRP	-0.0583
RRIRTRPPRLPRPRPRPDITPRP	-0.236
RRIRHRPPRLPRPRPRPQLYPRP	-0.238
RRIRLRPPRLPRPRPRPVSMPRP	-0.302
RRIRHRPPRLPRPRPRPFYPPRP	-0.623
RRIRLRPPRLPRPRPRPTFIPRP	-0.528
RRIRVRPPRLPRPRPRPSNIPRP	-0.526
RRIRKRPPRLPRPRPRPEWPPRP	0.273
RRIRWRPPRLPRPRPRPNVHPRP	0.0272
RRIRLRPPRLPRPRPRPPITPRP	-0.213
RRIRNRPPRLPRPRPRPKQWPRP	0.217
RRIRNRPPRLPRPRPRPTDQPRP	0.362
RRIRDRPPRLPRPRPRPWAPPRP	0.00499
RRIRPRPPRLPRPRPRPWAKPRP	-0.0178
RRIRIRPPRLPRPRPRPPDCPRP	-0.0639
RRIRNRPPRLPRPRPRPTSLPRP	-0.0597
RRIRTRPPRLPRPRPRPERTPRP	-0.0336

Sequence	shrunken log2 fold change
RRIRIRPPRLPRPRPRPGGEPRP	-0.063
RRIRIRPPRLPRPRPRPHLFPRP	-0.359
RRIRVRPPRLPRPRPRPLYLPRP	-0.507
RRIRHRPPRLPRPRPRPARQPRP	0.14
RRIRERPPRLPRPRPRPPKPPRP	0.122
RRIRGRPPRLPRPRPRPNQMPRP	1.6
RRIRDRPPRLPRPRPRPGLGPRP	0.208
RRIRERPPRLPRPRPRPLLHPRP	-0.288
RRIRMRPPRLPRPRPRPQNTPRP	0.0152
RRIRIRPPRLPRPRPRPSKKPRP	-0.229
RRIRMRPPRLPRPRPRPFIYPRP	0.892
RRIRIRPPRLPRPRPRPEQKPRP	2.45
RRIRKRPPRLPRPRPRPQAFPRP	-0.0237
RRIRDRPPRLPRPRPRPYRDPRP	-0.444
RRIRDRPPRLPRPRPRPMYAPRP	0.143
RRIRNRPPRLPRPRPRPYGIPRP	-0.00992
RRIRSRPPRLPRPRPRPQQGPRP	0.162
RRIRDRPPRLPRPRPRPKCDPRP	0.0437
RRIRSRPPRLPRPRPRPIVVPRP	0.027
RRIRCRPPRLPRPRPRPIRQPRP	-0.0914
RRIRCRPPRLPRPRPRPCHLPRP	-0.206
RRIRCRPPRLPRPRPRPMGGPRP	0.145
RRIRWRPPRLPRPRPRPFSQPRP	-0.0772
RRIRMRPPRLPRPRPRPGYRPRP	0.158
RRIRMRPPRLPRPRPRPSVSPRP	-0.35

Sequence	shrunken log2 fold change
RRIRHRPPRLPRPRPRPEFVPRP	0.02
RRIRLRPPRLPRPRPRPCKCPRP	-0.0362
RRIRTRPPRLPRPRPRPQVPPRP	0.101
RRIRNRPPRLPRPRPRPRDQPRP	-0.0345
RRIRRRPPRLPRPRPRPRTSPRP	0.108
RRIRTRPPRLPRPRPRPMEIPRP	-0.00196
RRIRIRPPRLPRPRPRPRSSPRP	0.152
RRIRWRPPRLPRPRPRPNMLPRP	0.0876
RRIRFRPPRLPRPRPRPYTWPRP	-1.05
RRIRYRPPRLPRPRPRPITAPRP	-0.00947
RRIRFRPPRLPRPRPRPQGGPRP	0.0852
RRIRGRPPRLPRPRPRPWLCPRP	0.266
RRIRGRPPRLPRPRPRPYRPPRP	-0.186
RRIRPRPPRLPRPRPRPLDWPRP	0.349
RRIRARPPRLPRPRPRPTHSPRP	0.459
RRIRIRPPRLPRPRPRPWWNPRP	-0.0623
RRIRMRPPRLPRPRPRPTQQPRP	0.54
RRIRWRPPRLPRPRPRPTMLPRP	0.101
RRIRLRPPRLPRPRPRPVEPPRP	0.188
RRIRSRPPRLPRPRPRPWKSPRP	-0.0239
RRIRRRPPRLPRPRPRPVRDPRP	0.718
RRIRNRPPRLPRPRPRPETWPRP	0.0309
RRIRERPPRLPRPRPRPYFGPRP	-0.673
RRIRARPPRLPRPRPRPLCHPRP	0.173
RRIRCRPPRLPRPRPRPWFWPRP	0.189

Sequence	shrunken log2 fold change
RRIRHRPPRLPRPRPRPDAAPRP	0.453
RRIRFRPPRLPRPRPRPLYNPRP	-0.644
RRIRERPPRLPRPRPRPDWYPRP	-0.297
RRIRLRPPRLPRPRPRPGKTPRP	0.086
RRIRERPPRLPRPRPRPNVLPRP	-0.0106
RRIRSRPPRLPRPRPRPDQAPRP	-0.107
RRIRCRPPRLPRPRPRPLDIPRP	-0.422
RRIRVRPPRLPRPRPRPGLQPRP	0.478
RRIRFRPPRLPRPRPRPTHKPRP	-0.0458
RRIRGRPPRLPRPRPRPDANPRP	1.99
RRIRIRPPRLPRPRPRPRTTPRP	-0.25
RRIRVRPPRLPRPRPRPMYHPRP	-0.0185
RRIRFRPPRLPRPRPRPHPNPRP	-0.31
RRIRFRPPRLPRPRPRPPFLPRP	-0.0645
RRIRSRPPRLPRPRPRPNVMPRP	-0.204
RRIRLRPPRLPRPRPRPCPHPRP	-0.0552
RRIRLRPPRLPRPRPRPFHCPRP	-0.0953
RRIRKRPPRLPRPRPRPMTNPRP	0.184
RRIRLRPPRLPRPRPRPICGPRP	-0.0025
RRIRHRPPRLPRPRPRPPLFPRP	0.169
RRIRCRPPRLPRPRPRPYDWPRP	-0.204
RRIRKRPPRLPRPRPRPVWIPRP	0.0328
RRIRERPPRLPRPRPRPVTQPRP	-0.282
RRIRLRPPRLPRPRPRPVILPRP	-1
RRIRKRPPRLPRPRPRPVYQPRP	0.131

Sequence	shrunken log2 fold change
RRIRGRPPRLPRPRPRPDYWPRP	-0.027
RRIRQRPPRLPRPRPRPNSWPRP	0.0283
RRIRDRPPRLPRPRPRPTVWPRP	0.527
RRIRARPPRLPRPRPRPWDDPRP	0.177
RRIRARPPRLPRPRPRPMYGPRP	0.22
RRIRVRPPRLPRPRPRPNGLPRP	-0.0536
RRIRWRPPRLPRPRPRPMTGPRP	0.019
RRIRDRPPRLPRPRPRPCLIPRP	0.0225
RRIRYRPPRLPRPRPRPNCYPRP	-0.0166
RRIRVRPPRLPRPRPRPCSNPRP	-0.411
RRIRQRPPRLPRPRPRPAIQPRP	-0.679
RRIRWRPPRLPRPRPRPNCCPRP	-0.16
RRIRVRPPRLPRPRPRPRKSPRP	0.337
RRIRFRPPRLPRPRPRPDCLPRP	-0.0266
RRIRMRPPRLPRPRPRPSWCPRP	0.387
RRIRERPPRLPRPRPRPNHGPRP	-0.348
RRIRLRPPRLPRPRPRPLVSPRP	0.0156
RRIRWRPPRLPRPRPRPPDLPRP	0.888
RRIRNRPPRLPRPRPRPIWWPRP	-0.141
RRIRPRPPRLPRPRPRPCKKPRP	-0.0659
RRIRHRPPRLPRPRPRPSYQPRP	-1.14
RRIRRRPPRLPRPRPRPDARPRP	0.553
RRIRCRPPRLPRPRPRPAWHPRP	0.182
RRIRERPPRLPRPRPRPRPEPRP	0.314
RRIRKRPPRLPRPRPRPTVNPRP	0.402

Sequence	shrunken log2 fold change
RRIRGRPPRLPRPRPRPDGWPRP	1.34
RRIRLRPPRLPRPRPRPPQCPRP	-0.313
RRIRYRPPRLPRPRPRPHPIPRP	-0.0356
RRIRQRPPRLPRPRPRPVVQPRP	-0.0933
RRIRIRPPRLPRPRPRPTFLPRP	-0.679
RRIRYRPPRLPRPRPRPHLTPRP	-0.466
RRIRYRPPRLPRPRPRPFGSPRP	-0.0685
RRIRSRPPRLPRPRPRPCQFPRP	-0.0444
RRIRNRPPRLPRPRPRPFFPPRP	-0.122
RRIRDRPPRLPRPRPRPHPCPRP	0.0731
RRIRGRPPRLPRPRPRPAHYPRP	0.447
RRIRPRPPRLPRPRPRPLYIPRP	-0.227
RRIRPRPPRLPRPRPRPQRGPRP	0.251
RRIRSRPPRLPRPRPRPGNRPRP	-0.00644
RRIRDRPPRLPRPRPRPECVPRP	1.3
RRIRDRPPRLPRPRPRPSLAPRP	0.474
RRIRGRPPRLPRPRPRPVDDPRP	0.882
RRIRTRPPRLPRPRPRPWEAPRP	0.337
RRIRERPPRLPRPRPRPYVNPRP	0.0121
RRIRNRPPRLPRPRPRPHLGPRP	-0.317
RRIRTRPPRLPRPRPRPFFAPRP	0.223
RRIRTRPPRLPRPRPRPQVWPRP	0.112
RRIRIRPPRLPRPRPRPLWSPRP	-0.245
RRIRCRPPRLPRPRPRPNLSPRP	-0.431
RRIRYRPPRLPRPRPRPYANPRP	-0.474
